Results as given in patent US20200131230A1 (published 2020).
Like-named read-outs stand apart in the source and are kept apart here. One block for each binder: values may come before it. Positions of bridges follow the written chain, without caps; N, C: chain ends. Non-standard residues stand in square brackets, D forms with d. 2Nal = N[C@@H](Cc1ccc2ccccc2c1)C(=O)O; Nle = CCCC[C@H](N)C(=O)O; 4CF = not defined here; DCF = not defined here; HF = not defined here

How the values were obtained:
[1] = target: T1, Thrombospondin human platelet (Calbiochem, 605225) (human, UniProt P07996 19-1170); assay: cell-based or functional assay
[2] = target: T1, Thrombospondin human platelet …; assay: cell-based or functional assay; remark: listed apart in the source

T1 sequence (P07996 19-1170 limits assumed): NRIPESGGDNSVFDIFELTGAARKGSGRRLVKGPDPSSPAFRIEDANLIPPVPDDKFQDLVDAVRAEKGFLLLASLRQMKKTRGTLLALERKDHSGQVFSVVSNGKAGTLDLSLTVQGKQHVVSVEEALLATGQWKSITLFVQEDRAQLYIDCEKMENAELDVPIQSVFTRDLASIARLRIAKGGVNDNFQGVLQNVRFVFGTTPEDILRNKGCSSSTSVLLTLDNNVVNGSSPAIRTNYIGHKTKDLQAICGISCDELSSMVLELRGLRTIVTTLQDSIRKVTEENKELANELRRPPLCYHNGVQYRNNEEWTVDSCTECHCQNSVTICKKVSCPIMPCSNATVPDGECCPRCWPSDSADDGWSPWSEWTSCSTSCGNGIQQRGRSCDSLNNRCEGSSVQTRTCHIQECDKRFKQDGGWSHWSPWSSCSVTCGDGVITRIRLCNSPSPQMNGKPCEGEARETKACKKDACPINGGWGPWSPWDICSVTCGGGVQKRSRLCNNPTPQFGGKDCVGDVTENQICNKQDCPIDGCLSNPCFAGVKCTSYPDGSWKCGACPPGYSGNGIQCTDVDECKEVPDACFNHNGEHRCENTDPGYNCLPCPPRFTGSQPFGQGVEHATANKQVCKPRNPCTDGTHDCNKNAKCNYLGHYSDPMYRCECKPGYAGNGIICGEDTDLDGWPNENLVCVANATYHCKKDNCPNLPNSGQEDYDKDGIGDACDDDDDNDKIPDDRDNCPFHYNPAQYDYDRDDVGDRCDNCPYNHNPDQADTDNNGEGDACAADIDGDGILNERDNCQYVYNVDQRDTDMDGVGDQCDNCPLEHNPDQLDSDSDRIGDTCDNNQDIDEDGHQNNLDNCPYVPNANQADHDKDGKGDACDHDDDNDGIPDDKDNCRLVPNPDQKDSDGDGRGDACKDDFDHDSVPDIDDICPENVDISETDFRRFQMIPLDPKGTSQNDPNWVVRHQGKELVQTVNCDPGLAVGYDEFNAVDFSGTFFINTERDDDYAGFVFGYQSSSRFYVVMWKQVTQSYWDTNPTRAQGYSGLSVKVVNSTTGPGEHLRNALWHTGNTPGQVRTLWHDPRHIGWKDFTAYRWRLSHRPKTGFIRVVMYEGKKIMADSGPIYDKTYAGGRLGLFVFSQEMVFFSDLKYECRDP

Cell adhesion IC50 [1]: 33.4 nM
B1: Compound 8 (peptide)
peptide: {CH2CO}-FRSGRNWVRWVC-NH2
modifications: thioether N-12
SMILES: CC(C)[C@@H]1NC(=O)[C@H](Cc2c[nH]c3ccccc23)NC(=O)[C@H](CCCNC(=N)N)NC(=O)[C@H](C(C)C)NC(=O)[C@H](Cc2c[nH]c3ccccc23)NC(=O)[C@H](CC(N)=O)NC(=O)[C@H](CCCNC(=N)N)NC(=O)CNC(=O)[C@H](CO)NC(=O)[C@H](CCCNC(=N)N)NC(=O)[C@H](Cc2ccccc2)NC(=O)CSC[C@@H](C(N)=O)NC1=O

Cell adhesion IC50 [1]: 15.6 nM
B2: Compound 23 (peptide)
peptide: {CH2CO}-WISGRTWVKWVC-NH2
modifications: thioether N-12
SMILES: CC[C@H](C)[C@@H]1NC(=O)[C@H](Cc2c[nH]c3ccccc23)NC(=O)CSC[C@@H](C(N)=O)NC(=O)[C@H](C(C)C)NC(=O)[C@H](Cc2c[nH]c3ccccc23)NC(=O)[C@H](CCCCN)NC(=O)[C@H](C(C)C)NC(=O)[C@H](Cc2c[nH]c3ccccc23)NC(=O)[C@H]([C@@H](C)O)NC(=O)[C@H](CCCNC(=N)N)NC(=O)CNC(=O)[C@H](CO)NC1=O

Cell adhesion IC50 [1]: 21 nM
B3: Compound 16 (peptide)
peptide: {CH2CO}-WISGKNWVKWVC-NH2
modifications: thioether N-12
SMILES: CC[C@H](C)[C@@H]1NC(=O)[C@H](Cc2c[nH]c3ccccc23)NC(=O)CSC[C@@H](C(N)=O)NC(=O)[C@H](C(C)C)NC(=O)[C@H](Cc2c[nH]c3ccccc23)NC(=O)[C@H](CCCCN)NC(=O)[C@H](C(C)C)NC(=O)[C@H](Cc2c[nH]c3ccccc23)NC(=O)[C@H](CC(N)=O)NC(=O)[C@H](CCCCN)NC(=O)CNC(=O)[C@H](CO)NC1=O

Cell adhesion IC50 [1]: 14.1 nM
B4: Compound 19 (peptide)
peptide: {CH2CO}-FISGKNWMKWVC-NH2
modifications: thioether N-12
SMILES: CC[C@H](C)[C@@H]1NC(=O)[C@H](Cc2ccccc2)NC(=O)CSC[C@@H](C(N)=O)NC(=O)[C@H](C(C)C)NC(=O)[C@H](Cc2c[nH]c3ccccc23)NC(=O)[C@H](CCCCN)NC(=O)[C@H](CCSC)NC(=O)[C@H](Cc2c[nH]c3ccccc23)NC(=O)[C@H](CC(N)=O)NC(=O)[C@H](CCCCN)NC(=O)CNC(=O)[C@H](CO)NC1=O

Cell adhesion IC50 [1]: 21.3 nM
B5: Compound 21 (peptide)
peptide: {CH2CO}-FISGKNWMRWVC-NH2
modifications: thioether N-12
SMILES: CC[C@H](C)[C@@H]1NC(=O)[C@H](Cc2ccccc2)NC(=O)CSC[C@@H](C(N)=O)NC(=O)[C@H](C(C)C)NC(=O)[C@H](Cc2c[nH]c3ccccc23)NC(=O)[C@H](CCCNC(=N)N)NC(=O)[C@H](CCSC)NC(=O)[C@H](Cc2c[nH]c3ccccc23)NC(=O)[C@H](CC(N)=O)NC(=O)[C@H](CCCCN)NC(=O)CNC(=O)[C@H](CO)NC1=O

Cell adhesion IC50 [1]: 17.7 nM
B6: Compound 17 (peptide)
peptide: {CH2CO}-FITGKNWVKWVC-NH2
modifications: thioether N-12
SMILES: CC[C@H](C)[C@@H]1NC(=O)[C@H](Cc2ccccc2)NC(=O)CSC[C@@H](C(N)=O)NC(=O)[C@H](C(C)C)NC(=O)[C@H](Cc2c[nH]c3ccccc23)NC(=O)[C@H](CCCCN)NC(=O)[C@H](C(C)C)NC(=O)[C@H](Cc2c[nH]c3ccccc23)NC(=O)[C@H](CC(N)=O)NC(=O)[C@H](CCCCN)NC(=O)CNC(=O)[C@H]([C@@H](C)O)NC1=O

Cell adhesion IC50 [2]: 32.5 nM
Binder: {CH2CO}-[2Nal][4CF]SGRNWVKWVC-NH2 (thioether N-12; reading uncertain) [Compound 31]

Cell adhesion IC50 [1]: 13.1 nM
B7: Compound 20 (peptide)
peptide: {CH2CO}-WISGKTWVKWVC-NH2
modifications: thioether N-12
SMILES: CC[C@H](C)[C@@H]1NC(=O)[C@H](Cc2c[nH]c3ccccc23)NC(=O)CSC[C@@H](C(N)=O)NC(=O)[C@H](C(C)C)NC(=O)[C@H](Cc2c[nH]c3ccccc23)NC(=O)[C@H](CCCCN)NC(=O)[C@H](C(C)C)NC(=O)[C@H](Cc2c[nH]c3ccccc23)NC(=O)[C@H]([C@@H](C)O)NC(=O)[C@H](CCCCN)NC(=O)CNC(=O)[C@H](CO)NC1=O

Cell adhesion IC50 [1]: 7.9 nM
Binder: {CH2CO}-[4CF]ISGRNWVKWVC-NH2 (thioether N-12; reading uncertain) [Compound 25]

Cell adhesion IC50 [2]: 32.8 nM
B8: Compound 27 (peptide)
peptide: {CH2CO}-[2Nal]FSGRNWVKWVC-NH2
modifications: thioether N-12
SMILES: CC(C)[C@@H]1NC(=O)[C@H](Cc2c[nH]c3ccccc23)NC(=O)[C@H](CCCCN)NC(=O)[C@H](C(C)C)NC(=O)[C@H](Cc2c[nH]c3ccccc23)NC(=O)[C@H](CC(N)=O)NC(=O)[C@H](CCCNC(=N)N)NC(=O)CNC(=O)[C@H](CO)NC(=O)[C@H](Cc2ccccc2)NC(=O)[C@H](Cc2ccc3ccccc3c2)NC(=O)CSC[C@@H](C(N)=O)NC1=O

Cell adhesion IC50 [2]: 26 nM
Binder: {CH2CO}-[2Nal]ISGRN[6CW]VKWVC-NH2 (thioether N-12) [Compound 35]

Cell adhesion IC50 [2]: 17.2 nM
Binder: {CH2CO}-[2Nal]ISGRNWVK[6CW]VC-NH2 (thioether N-12) [Compound 36]

Cell adhesion IC50 [1]: 13 nM
B9: Compound 18 (peptide)
peptide: {CH2CO}-FISGKTWVKWVC-NH2
modifications: thioether N-12
SMILES: CC[C@H](C)[C@@H]1NC(=O)[C@H](Cc2ccccc2)NC(=O)CSC[C@@H](C(N)=O)NC(=O)[C@H](C(C)C)NC(=O)[C@H](Cc2c[nH]c3ccccc23)NC(=O)[C@H](CCCCN)NC(=O)[C@H](C(C)C)NC(=O)[C@H](Cc2c[nH]c3ccccc23)NC(=O)[C@H]([C@@H](C)O)NC(=O)[C@H](CCCCN)NC(=O)CNC(=O)[C@H](CO)NC1=O

Cell adhesion IC50 [1]: 20.3 nM
B10: Compound 22 (peptide)
peptide: {CH2CO}-WISGKTWVRWVC-NH2
modifications: thioether N-12
SMILES: CC[C@H](C)[C@@H]1NC(=O)[C@H](Cc2c[nH]c3ccccc23)NC(=O)CSC[C@@H](C(N)=O)NC(=O)[C@H](C(C)C)NC(=O)[C@H](Cc2c[nH]c3ccccc23)NC(=O)[C@H](CCCNC(=N)N)NC(=O)[C@H](C(C)C)NC(=O)[C@H](Cc2c[nH]c3ccccc23)NC(=O)[C@H]([C@@H](C)O)NC(=O)[C@H](CCCCN)NC(=O)CNC(=O)[C@H](CO)NC1=O

Cell adhesion IC50 [2]: 20.7 nM
B11: Compound 33 (peptide)
peptide: {CH2CO}-[2Nal]WSGRNWVKWVC-NH2
modifications: thioether N-12
SMILES: CC(C)[C@@H]1NC(=O)[C@H](Cc2c[nH]c3ccccc23)NC(=O)[C@H](CCCCN)NC(=O)[C@H](C(C)C)NC(=O)[C@H](Cc2c[nH]c3ccccc23)NC(=O)[C@H](CC(N)=O)NC(=O)[C@H](CCCNC(=N)N)NC(=O)CNC(=O)[C@H](CO)NC(=O)[C@H](Cc2c[nH]c3ccccc23)NC(=O)[C@H](Cc2ccc3ccccc3c2)NC(=O)CSC[C@@H](C(N)=O)NC1=O

Cell adhesion IC50 [2]: 7 nM
B12: Compound 26 (peptide)
peptide: {CH2CO}-FISGRNW[Nle]KWVC-NH2
modifications: thioether N-12
SMILES: CCCC[C@@H]1NC(=O)[C@H](Cc2c[nH]c3ccccc23)NC(=O)[C@H](CC(N)=O)NC(=O)[C@H](CCCNC(=N)N)NC(=O)CNC(=O)[C@H](CO)NC(=O)[C@H]([C@@H](C)CC)NC(=O)[C@H](Cc2ccccc2)NC(=O)CSC[C@@H](C(N)=O)NC(=O)[C@H](C(C)C)NC(=O)[C@H](Cc2c[nH]c3ccccc23)NC(=O)[C@H](CCCCN)NC1=O

Cell adhesion IC50 [2]: 19.6 nM
Binder: {CH2CO}-[2Nal]ISGRNWVKW[HF]C-NH2 (thioether N-12; reading uncertain) [Compound 37]

Cell adhesion IC50 [2]: 17.6 nM
B13: Compound 29 (peptide)
peptide: {CH2CO}-[2Nal]ISGRNWVK[2Nal]VC-NH2
modifications: thioether N-12
SMILES: CC[C@H](C)[C@@H]1NC(=O)[C@H](Cc2ccc3ccccc3c2)NC(=O)CSC[C@@H](C(N)=O)NC(=O)[C@H](C(C)C)NC(=O)[C@H](Cc2ccc3ccccc3c2)NC(=O)[C@H](CCCCN)NC(=O)[C@H](C(C)C)NC(=O)[C@H](Cc2c[nH]c3ccccc23)NC(=O)[C@H](CC(N)=O)NC(=O)[C@H](CCCNC(=N)N)NC(=O)CNC(=O)[C@H](CO)NC1=O

Cell adhesion IC50 [2]: 9.2 nM
B14: Compound 38 (peptide)
peptide: {CH2CO}-[2Nal]ISGRNW[Nle]KWVC-NH2
modifications: thioether N-12
SMILES: CCCC[C@@H]1NC(=O)[C@H](Cc2c[nH]c3ccccc23)NC(=O)[C@H](CC(N)=O)NC(=O)[C@H](CCCNC(=N)N)NC(=O)CNC(=O)[C@H](CO)NC(=O)[C@H]([C@@H](C)CC)NC(=O)[C@H](Cc2ccc3ccccc3c2)NC(=O)CSC[C@@H](C(N)=O)NC(=O)[C@H](C(C)C)NC(=O)[C@H](Cc2c[nH]c3ccccc23)NC(=O)[C@H](CCCCN)NC1=O

Cell adhesion IC50 [2]: 25.9 nM
Binder: {CH2CO}-[2Nal][HF]SGRNWVKWVC-NH2 (thioether N-12; reading uncertain) [Compound 32]

Cell adhesion IC50 [2]: 16.3 nM
B15: Compound 39 (peptide)
peptide: {CH2CO}-[2Nal]ISGRNW[Nle]KWFC-NH2
modifications: thioether N-12
SMILES: CCCC[C@@H]1NC(=O)[C@H](Cc2c[nH]c3ccccc23)NC(=O)[C@H](CC(N)=O)NC(=O)[C@H](CCCNC(=N)N)NC(=O)CNC(=O)[C@H](CO)NC(=O)[C@H]([C@@H](C)CC)NC(=O)[C@H](Cc2ccc3ccccc3c2)NC(=O)CSC[C@@H](C(N)=O)NC(=O)[C@H](Cc2ccccc2)NC(=O)[C@H](Cc2c[nH]c3ccccc23)NC(=O)[C@H](CCCCN)NC1=O

Cell adhesion IC50 [2]: 28.1 nM
Binder: {CH2CO}-[DCF][2Nal]SGRNWVKWVC-NH2 (thioether N-12; reading uncertain) [Compound 34]
